Results as given in the supplement of paper PMC11780869.

Test system: Bacillus subtilis
Assay: cleaved RNA product abundance (RNA/gDNA barcode ratio) relative to median wild-type variant (ratio to wild type); higher = more accumulation of the downstream cleavage product
Conditions: cleavage site: cggR-gapA (positions -7 to +36 mutated)
How it was run: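 Oligos with a 9% error rate were used to build barcoded, mutagenized RNase Y cleavage-site windows within truncated aprE or tetM reporter mRNAs, which were integrated into the B. subtilis chromosome. Cultures were grown in LB at 37°C between OD600 0.0003 and 0.3. Cleaved RNA was gel-selected, reverse transcribed and barcode-sequenced, as were genomic DNA barcodes, and UMIs were collapsed. Cleaved product abundance is the scaled RNA:gDNA barcode ratio, with the median construct carrying the unmutated site as reference.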

[1] = experiment (reporter, strain, medium): exp 4a: truncated aprE reporter, strain BJT201 with 2% xylose (RNase J1 expressed)
[2] = experiment (reporter, strain, medium): exp 2b: truncated aprE reporter, strain BJT200
[3] = experiment (reporter, strain, medium): exp 6: tetM reporter, strain 168

Sequence | cleaved RNA product abundance [1] | cleaved RNA product abundance [2] | cleaved RNA product abundance [3]
ACAGACGAAGGAGCCGCAAAGAAGTTATTAAGGGATGAATTATCCCTCAATATAAAAATCTCTCACTTATTTAAA | 0.966 | – | –
ACAGACGAAGGAGCCGCAAAGAAGTTATTAAGGGATGAATTATCCCTCAATATAAATACCTCTCACTTATTTAAA | – | 0.469 | –
ACAGACGAAGGAGCCGCAAAGAAGTTATTAAGGGATGAATTATCCCTCAATATAAATATCTCTCACTTATTTAAA | 0.845 | 0.687 | 0.559
ACAGACGAAGGAGCCGCAAAGAAGTTATTAAGGGATGAATTATCCCTCAATATACATATCTCTCACTTATTTAAA | 0.442 | – | –
ACAGACGAAGGAGCCGCAAAGAAGTTATTAAGGGATGAATTATCCCTCAATATATATATCTCTCACTTATTTAAA | 0.616 | – | –
ACAGACGAAGGAGCCGCAAAGAAGTTATTAAGGGATGAATTATCCCTCACTATAAATATCTCTCACTTATTTAAA | 0.208 | – | –
ACAGACGAAGGAGCCGCAAAGAAGTTATTAAGGGATGAATTATCCCTCATTATAAATATCTCTCACTTATTTAAA | 0.32 | – | –
ACAGACGAAGGAGCCGCAAAGAAGTTATTAAGGGATGAATTATCCCTCTATATAAATATCTCTCACTTATTTAAA | 0.3 | – | –
ACAGACGAAGGAGCCGCAAAGAAGTTATTAAGGGATGAATTATCCCTGAATATAAATATCTCTCACTTATTTAAA | – | 0.396 | –
ACAGACGAAGGAGCCGCAAAGAAGTTATTAAGGGATGAATTATCCCTTAATATAAATATCTCTCACTTATTTAAA | 0.438 | – | –
ACAGACGAAGGAGCCGCAAAGAAGTTATTAAGGGATGAATTATCCTTCAATATAAATATCTCTCACTTATTTAAA | 0.284 | 0.232 | –
ACAGACGAAGGAGCCGCAAAGAAGTTATTAAGGGATGAATTATCTCTCAATATAAATATCTCTCACTTATTTAAA | 0.37 | 0.318 | –
ACAGACGAAGGAGCCGCAAAGAAGTTATTAAGGGATGAATTATTCCTCAATATAAATATCTCTCACTTATTTAAA | 0.215 | – | –
ACAGACGAAGGAGCCGCAAAGAAGTTATTAAGGGATGAATTTTCCCTCAATATAAATATCTCTCACTTATTTAAA | 0.73 | – | –
ACAGACGAAGGAGCCGCAAAGAAGTTATTAAGGGATGACCAATCCCTCAATATAAATATCTCTCACTTATTTAAA | 0.749 | – | –
ACAGACGAAGGAGCCGCAAAGAAGTTATTAAGGGATGACTAAACCCTCAATATAAATATCTCTCACTTATTTAAA | 0.303 | 0.197 | –
ACAGACGAAGGAGCCGCAAAGAAGTTATTAAGGGATGACTAATACCTCAATATAAATATCTCTCACTTATTTAAA | 0.0872 | – | –
ACAGACGAAGGAGCCGCAAAGAAGTTATTAAGGGATGACTAATCCATCAATATAAATATCTCTCACTTATTTAAA | 0.154 | 0.112 | –
ACAGACGAAGGAGCCGCAAAGAAGTTATTAAGGGATGACTAATCCCACAATATAAATATCTCTCACTTATTTAAA | 0.197 | 0.157 | –
ACAGACGAAGGAGCCGCAAAGAAGTTATTAAGGGATGACTAATCCCTAAATATAAATATCTCTCACTTATTTAAA | 0.359 | – | –
ACAGACGAAGGAGCCGCAAAGAAGTTATTAAGGGATGACTAATCCCTCAAAATAAATATCTCTCACTTATTTAAA | – | 0.192 | –

Sequence | cleaved RNA product abundance [1] | cleaved RNA product abundance [2] | cleaved RNA product abundance [3]
ACAGACGAAGGAGCCGCAAAGAAGTTATTAAGGGATGACTAATCCCTCAAGATAAATATCTCTCACTTATTTAAA | 0.247 | – | –
ACAGACGAAGGAGCCGCAAAGAAGTTATTAAGGGATGACTAATCCCTCAATATAAATATCTCTCACTTATTTAAA | 0.679 | 0.603 | 0.978
ACAGACGAAGGAGCCGCAAAGAAGTTATTAAGGGATGACTAATCCCTCAATATAATTATCTCTCACTTATTTAAA | 0.282 | – | –
ACAGACGAAGGAGCCGCAAAGAAGTTATTAAGGGATGACTAATCCCTCAATATATATATCTCTCACTTATTTAAA | – | 0.293 | –
ACAGACGAAGGAGCCGCAAAGAAGTTATTAAGGGATGACTAATCCCTCATTATAAATATCTCTCACTTATTTAAA | 0.208 | 0.155 | –
ACAGACGAAGGAGCCGCAAAGAAGTTATTAAGGGATGACTAATCCCTCTATATAAATATCTCTCACTTATTTAAA | 0.337 | – | –
ACAGACGAAGGAGCCGCAAAGAAGTTATTAAGGGATGACTAATCCGTCAATATAAATATCTCTCACTTATTTAAA | 0.213 | – | –
ACAGACGAAGGAGCCGCAAAGAAGTTATTAAGGGATGACTAATCCTTCAATATAAATATCTCTCACTTATTTAAA | 0.251 | – | –
ACAGACGAAGGAGCCGCAAAGAAGTTATTAAGGGATGACTAATTCCTCAATATAAATATCTCTCACTTATTTAAA | 0.314 | – | –
ACAGACGAAGGAGCCGCAAAGAAGTTATTAAGGGATGACTACTCCCTCAATATAAATATCTCTCACTTATTTAAA | 0.446 | – | –
ACAGACGAAGGAGCCGCAAAGAAGTTATTAAGGGATGACTATTCCCTCAATATAAATATCTCTCACTTATTTAAA | 0.804 | – | –
ACAGACGAAGGAGCCGCAAAGAAGTTATTAAGGGATGAGAAATCCCTCAATATAAATATCTCTCACTTATTTAAA | 0.604 | – | –
ACAGACGAAGGAGCCGCAAAGAAGTTATTAAGGGATGAGTAAACCCTCAATATAAATATCTCTCACTTATTTAAA | 0.35 | – | –
ACAGACGAAGGAGCCGCAAAGAAGTTATTAAGGGATGAGTAATCACTCAATATAAATATCTCTCACTTATTTAAA | 0.264 | – | –
ACAGACGAAGGAGCCGCAAAGAAGTTATTAAGGGATGAGTAATCCCTCAATATAAATATCTCTCACTTATTTAAA | 0.596 | 0.484 | 0.74
ACAGACGAAGGAGCCGCAAAGAAGTTATTAAGGGATGAGTAATCCCTCATTATAAATATCTCTCACTTATTTAAA | 0.185 | – | –
ACAGACGAAGGAGCCGCAAAGAAGTTATTAAGGGATGAGTAATCCCTCCATATAAATATCTCTCACTTATTTAAA | 0.164 | – | –
ACAGACGAAGGAGCCGCAAAGAAGTTATTAAGGGATGAGTAATCCCTTAATATAAATATCTCTCACTTATTTAAA | 0.601 | – | –
ACAGACGAAGGAGCCGCAAAGAAGTTATTAAGGGATGAGTAATCCTTCAATATAAATATCTCTCACTTATTTAAA | 0.346 | – | –
ACAGACGAAGGAGCCGCAAAGAAGTTATTAAGGGATGAGTAATTCCTCAATATAAATATCTCTCACTTATTTAAA | 0.452 | – | –
ACAGACGAAGGAGCCGCAAAGAAGTTATTAAGGGATGATAAATCCCTCAATATAAATATCTCTCACTTATTTAAA | 0.853 | 0.648 | –

Sequence | cleaved RNA product abundance [1] | cleaved RNA product abundance [2] | cleaved RNA product abundance [3]
ACAGACGAAGGAGCCGCAAAGAAGTTATTAAGGGATGATAATCCCTCAATATAAATATCTCTCACTTATTTAAAG | 0.861 | – | –
ACAGACGAAGGAGCCGCAAAGAAGTTATTAAGGGATGATGAATCCCTCAATATAAATATCTCTCACTTATTTAAA | 0.766 | – | –
ACAGACGAAGGAGCCGCAAAGAAGTTATTAAGGGATGATTAAACCCTCAATATAAATATCTCTCACTTATTTAAA | 0.362 | – | –
ACAGACGAAGGAGCCGCAAAGAAGTTATTAAGGGATGATTAATACCTCAATATAAATATCTCTCACTTATTTAAA | 0.134 | – | –
ACAGACGAAGGAGCCGCAAAGAAGTTATTAAGGGATGATTAATCACTCAATATAAATATCTCTCACTTATTTAAA | – | 0.152 | –
ACAGACGAAGGAGCCGCAAAGAAGTTATTAAGGGATGATTAATCCATCAATATAAATATCTCTCACTTATTTAAA | – | 0.124 | –
ACAGACGAAGGAGCCGCAAAGAAGTTATTAAGGGATGATTAATCCCACAATATAAATATCTCTCACTTATTTAAA | 0.276 | – | –
ACAGACGAAGGAGCCGCAAAGAAGTTATTAAGGGATGATTAATCCCGCAATATAAATATCTCTCACTTATTTAAA | 0.0868 | – | –
ACAGACGAAGGAGCCGCAAAGAAGTTATTAAGGGATGATTAATCCCTAAATATAAATATCTCTCACTTATTTAAA | 0.599 | – | –
ACAGACGAAGGAGCCGCAAAGAAGTTATTAAGGGATGATTAATCCCTCAAAATAAATATCTCTCACTTATTTAAA | 0.282 | 0.294 | –
ACAGACGAAGGAGCCGCAAAGAAGTTATTAAGGGATGATTAATCCCTCAAGATAAATATCTCTCACTTATTTAAA | 0.304 | – | –
ACAGACGAAGGAGCCGCAAAGAAGTTATTAAGGGATGATTAATCCCTCAATAGAAATATCTCTCACTTATTTAAA | 0.0935 | – | –
ACAGACGAAGGAGCCGCAAAGAAGTTATTAAGGGATGATTAATCCCTCAATATAAACATCTCTCACTTATTTAAA | 0.559 | – | –
ACAGACGAAGGAGCCGCAAAGAAGTTATTAAGGGATGATTAATCCCTCAATATAAATATCTCTCACTTATTTAAA | 0.844 | 0.75 | 0.94
ACAGACGAAGGAGCCGCAAAGAAGTTATTAAGGGATGATTAATCCCTCAATATCAATATCTCTCACTTATTTAAA | 0.0525 | – | –
ACAGACGAAGGAGCCGCAAAGAAGTTATTAAGGGATGATTAATCCCTCAATATTAATATCTCTCACTTATTTAAA | – | 0.164 | –
ACAGACGAAGGAGCCGCAAAGAAGTTATTAAGGGATGATTAATCCCTCAATTTAAATATCTCTCACTTATTTAAA | 0.0965 | – | –
ACAGACGAAGGAGCCGCAAAGAAGTTATTAAGGGATGATTAATCCCTGAATATAAATATCTCTCACTTATTTAAA | 0.458 | – | –
ACAGACGAAGGAGCCGCAAAGAAGTTATTAAGGGATGATTAATCCCTTAATATAAATATCTCTCACTTATTTAAA | 0.554 | – | –
